Reference: PMC5936033

System: GST-VP1 (Chicken anaemia virus (strain CAU269/7?))
Assay: EMSA (agarose)
Details: 50 mM Tris-HCl pH 7.5, 120 mM KCl, 1.0 mM EDTA, 0.5 mM DTT, 30 mg/ml BSA (so in the source); 100 ng DNA in 20 ul, 37 C, 30 min (Results: 1 h); 0.8% agarose/TAE. Text …

| Substance | percent unbound DNA (% unbound DNA) |
| --- | --- |
| CAV genome minus-strand linear ssDNA | 53.3 |
| M13mp18 ssDNA | 46.5 |
| linear pcDNA3.1 (EcoRI) | 84.7 |
| pCAV, open circular (form I) | 59.6 |
| pCAV, supercoiled (form II) | 82.6 |
